# Laboratory results reported in patent publication US20240197877A1, “BINDING PROTEINS RECOGNIZING HA-2 ANTIGEN AND USES […]” (published 2024).
# B1: HA2-MJ14-DP317 MGTM Sequence (also known as “TCR-101” and “MJ14-DP317”) (TCR, V domains shown)
# V domain 1: QTVTQSQPEMSVQEAETVTLSCTYDTSESDYYLFWYKQPPSRQMILVIRQEAYKQQNATENRFSVNFQKAAKSFSLKISDSQLGDAAMYFCAYRSERYSTLTFGKGTMLLVSP
# V domain 2: SQTIHQWPATLVQPVGSPLSLECTVEGTSNPNLYWYRQAAGRGLQLLFYSVGIGQISSEVPQNLSASRPQDRQFILSSKKLLLSDSGFYLCAWSVPYLAGGKRPDTQYFGPGTRLTVLE
# What was measured:
# [1] = molecular target: MALT1 peptide (…) on peptide-pulsed T2 cells, HLA-A*02:01 (human); assay: cell-based or functional assay
# [2] = molecular target: MYO3A/MYO3B peptide (…) on peptide-pulsed T2 cells, HLA-A*02:01 (human); assay: cell-based or functional assay
binder,measurement,setting,value
B1,EC50 of cytotoxicity (AUC of growth of peptide-pulsed T2 cells over 72 h against peptide dose),[1],100 fold lower affinity than the target HA-2 peptide
same,EC50 of cytotoxicity (AUC of growth of peptide-pulsed T2 cells over 72 h against peptide dose),[2],100 fold lower affinity than the target HA-2 peptide
